Experimental data from PMC4330389, “Domain organization within the nuclear export factor Mex67:Mtr2 generates an extended mRNA binding surface”.

T1: Mex67 (full length):Mtr2;Mtr2 (Saccharomyces cerevisiae;Saccharomyces …, UniProt Q99257;P34232 1-599;1-184, |)
T1 sequence 1: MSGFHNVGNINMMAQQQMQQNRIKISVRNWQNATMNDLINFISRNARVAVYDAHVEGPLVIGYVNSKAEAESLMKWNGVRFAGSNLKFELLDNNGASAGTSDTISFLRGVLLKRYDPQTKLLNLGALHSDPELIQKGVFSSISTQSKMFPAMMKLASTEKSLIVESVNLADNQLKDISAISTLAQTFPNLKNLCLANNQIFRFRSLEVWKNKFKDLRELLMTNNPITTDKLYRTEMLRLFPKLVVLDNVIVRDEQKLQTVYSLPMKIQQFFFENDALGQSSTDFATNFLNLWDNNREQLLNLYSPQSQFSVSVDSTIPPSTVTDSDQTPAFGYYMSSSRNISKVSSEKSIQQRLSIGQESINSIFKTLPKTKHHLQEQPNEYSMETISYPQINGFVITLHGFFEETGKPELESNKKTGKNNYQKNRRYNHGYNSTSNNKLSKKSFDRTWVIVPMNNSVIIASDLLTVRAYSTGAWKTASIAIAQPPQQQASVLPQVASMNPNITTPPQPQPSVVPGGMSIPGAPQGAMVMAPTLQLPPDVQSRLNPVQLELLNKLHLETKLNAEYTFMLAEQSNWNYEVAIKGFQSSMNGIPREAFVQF
T1 sequence 2: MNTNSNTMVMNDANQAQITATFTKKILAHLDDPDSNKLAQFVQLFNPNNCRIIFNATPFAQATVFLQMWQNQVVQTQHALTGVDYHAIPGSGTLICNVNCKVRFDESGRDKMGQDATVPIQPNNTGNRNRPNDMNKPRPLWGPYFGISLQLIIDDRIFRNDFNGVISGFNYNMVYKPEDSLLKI

T2: Mex67NTF2L;Mtr2 (Saccharomyces cerevisiae;Saccharomyces …, UniProt Q99257;P34232 264-487;1-184, |)
T2 sequence 1: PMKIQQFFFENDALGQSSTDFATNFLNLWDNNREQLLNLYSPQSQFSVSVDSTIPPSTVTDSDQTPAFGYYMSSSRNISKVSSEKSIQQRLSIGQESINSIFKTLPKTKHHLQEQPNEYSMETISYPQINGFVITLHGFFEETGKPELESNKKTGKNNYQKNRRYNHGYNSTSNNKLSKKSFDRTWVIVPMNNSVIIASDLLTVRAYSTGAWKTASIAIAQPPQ
T2 sequence 2: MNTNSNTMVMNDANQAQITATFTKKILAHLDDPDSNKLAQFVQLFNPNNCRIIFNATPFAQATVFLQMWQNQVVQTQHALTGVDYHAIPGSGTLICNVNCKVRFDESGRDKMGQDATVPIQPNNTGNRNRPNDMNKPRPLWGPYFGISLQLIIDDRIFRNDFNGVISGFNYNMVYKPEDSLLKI

T3: Mex67ΔUBA;Mtr2 (Saccharomyces cerevisiae;Saccharomyces …, UniProt Q99257;P34232 1-487;1-184, |)
T3 sequence 1: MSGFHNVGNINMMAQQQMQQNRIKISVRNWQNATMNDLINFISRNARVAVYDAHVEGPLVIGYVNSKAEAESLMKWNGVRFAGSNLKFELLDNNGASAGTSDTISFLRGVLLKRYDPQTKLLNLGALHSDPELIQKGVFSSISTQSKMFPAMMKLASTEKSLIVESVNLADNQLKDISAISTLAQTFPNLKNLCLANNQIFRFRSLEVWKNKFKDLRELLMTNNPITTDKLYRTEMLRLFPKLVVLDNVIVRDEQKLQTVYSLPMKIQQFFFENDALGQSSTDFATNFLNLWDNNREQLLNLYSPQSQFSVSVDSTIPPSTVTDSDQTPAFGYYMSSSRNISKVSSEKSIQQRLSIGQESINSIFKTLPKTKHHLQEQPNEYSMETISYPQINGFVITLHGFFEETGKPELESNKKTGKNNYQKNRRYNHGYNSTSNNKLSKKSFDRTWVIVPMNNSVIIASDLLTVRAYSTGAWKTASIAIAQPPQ
T3 sequence 2: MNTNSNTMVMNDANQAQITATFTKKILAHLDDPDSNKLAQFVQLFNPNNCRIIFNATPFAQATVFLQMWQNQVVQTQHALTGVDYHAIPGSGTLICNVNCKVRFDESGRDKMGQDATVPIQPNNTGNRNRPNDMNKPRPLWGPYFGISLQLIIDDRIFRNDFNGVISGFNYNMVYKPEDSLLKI

T4: Mex67ΔUBA L263D+M265D;Mtr2 (Saccharomyces cerevisiae;Saccharomyces …, UniProt Q99257;P34232 1-487;1-184, L263D;M265D|)
T4 sequence 1: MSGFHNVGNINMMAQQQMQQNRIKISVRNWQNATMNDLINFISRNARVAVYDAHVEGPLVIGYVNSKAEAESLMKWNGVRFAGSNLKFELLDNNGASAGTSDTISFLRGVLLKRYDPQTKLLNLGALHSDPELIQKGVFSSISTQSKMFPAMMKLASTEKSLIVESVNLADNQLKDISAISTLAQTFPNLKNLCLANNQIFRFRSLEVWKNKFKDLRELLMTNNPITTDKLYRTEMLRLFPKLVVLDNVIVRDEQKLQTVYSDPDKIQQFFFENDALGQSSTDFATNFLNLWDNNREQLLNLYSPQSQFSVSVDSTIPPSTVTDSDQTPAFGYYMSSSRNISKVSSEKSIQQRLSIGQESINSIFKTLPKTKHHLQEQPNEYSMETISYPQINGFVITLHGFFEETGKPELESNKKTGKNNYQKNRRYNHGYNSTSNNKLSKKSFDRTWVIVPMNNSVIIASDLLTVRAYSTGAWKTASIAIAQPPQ
T4 sequence 2: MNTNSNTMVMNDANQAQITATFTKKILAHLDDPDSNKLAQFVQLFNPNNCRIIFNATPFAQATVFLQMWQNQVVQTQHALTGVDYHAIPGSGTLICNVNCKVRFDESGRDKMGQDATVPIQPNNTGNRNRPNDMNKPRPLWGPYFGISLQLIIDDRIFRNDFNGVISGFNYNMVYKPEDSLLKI

T5: Mex67RRM-LRR (Saccharomyces cerevisiae, UniProt Q99257 2-262)
T5 sequence: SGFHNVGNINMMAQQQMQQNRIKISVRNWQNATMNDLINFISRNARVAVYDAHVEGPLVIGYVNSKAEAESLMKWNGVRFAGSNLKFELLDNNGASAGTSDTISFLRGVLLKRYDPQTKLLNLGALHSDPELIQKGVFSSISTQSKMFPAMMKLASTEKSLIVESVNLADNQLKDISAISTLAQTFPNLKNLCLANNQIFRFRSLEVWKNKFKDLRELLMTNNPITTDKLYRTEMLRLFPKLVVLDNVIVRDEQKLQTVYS

T6: Mex67ΔUBA L263A+M265A;Mtr2 (Saccharomyces cerevisiae;Saccharomyces …, UniProt Q99257;P34232 1-487;1-184, L263A;M265A|)
T6 sequence 1: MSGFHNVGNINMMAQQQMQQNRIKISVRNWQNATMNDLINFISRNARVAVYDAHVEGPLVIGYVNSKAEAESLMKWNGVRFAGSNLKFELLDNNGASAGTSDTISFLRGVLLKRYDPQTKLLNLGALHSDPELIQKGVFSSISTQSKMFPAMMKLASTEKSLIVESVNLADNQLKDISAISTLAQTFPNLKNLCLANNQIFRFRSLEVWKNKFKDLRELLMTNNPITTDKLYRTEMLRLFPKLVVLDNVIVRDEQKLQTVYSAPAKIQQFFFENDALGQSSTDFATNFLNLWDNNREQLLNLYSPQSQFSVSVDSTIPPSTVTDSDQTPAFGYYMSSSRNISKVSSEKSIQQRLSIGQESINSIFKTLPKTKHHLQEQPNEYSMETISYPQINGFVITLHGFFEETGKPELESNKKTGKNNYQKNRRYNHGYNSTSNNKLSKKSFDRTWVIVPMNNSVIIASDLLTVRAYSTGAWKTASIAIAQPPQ
T6 sequence 2: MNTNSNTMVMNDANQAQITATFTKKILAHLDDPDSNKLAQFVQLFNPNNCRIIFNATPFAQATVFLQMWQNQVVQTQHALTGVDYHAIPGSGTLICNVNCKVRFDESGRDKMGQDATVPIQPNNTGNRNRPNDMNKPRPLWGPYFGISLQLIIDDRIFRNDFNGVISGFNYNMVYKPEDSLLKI

T7: Mex67ΔUBA L263Y+M265Y;Mtr2 (Saccharomyces cerevisiae;Saccharomyces …, UniProt Q99257;P34232 1-487;1-184, L263Y;M265Y|)
T7 sequence 1: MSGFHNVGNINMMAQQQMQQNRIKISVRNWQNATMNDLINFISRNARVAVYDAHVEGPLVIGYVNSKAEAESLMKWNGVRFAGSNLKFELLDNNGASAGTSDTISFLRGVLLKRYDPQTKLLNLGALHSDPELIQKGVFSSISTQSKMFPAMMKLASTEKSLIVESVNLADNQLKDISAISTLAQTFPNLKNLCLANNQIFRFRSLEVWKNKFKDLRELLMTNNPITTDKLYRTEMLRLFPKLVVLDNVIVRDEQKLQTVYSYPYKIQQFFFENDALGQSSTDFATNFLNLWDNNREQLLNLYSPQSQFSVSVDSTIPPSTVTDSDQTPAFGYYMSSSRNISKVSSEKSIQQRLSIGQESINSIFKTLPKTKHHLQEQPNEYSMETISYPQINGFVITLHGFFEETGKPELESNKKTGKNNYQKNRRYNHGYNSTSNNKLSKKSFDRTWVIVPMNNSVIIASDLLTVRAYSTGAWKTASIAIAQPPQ
T7 sequence 2: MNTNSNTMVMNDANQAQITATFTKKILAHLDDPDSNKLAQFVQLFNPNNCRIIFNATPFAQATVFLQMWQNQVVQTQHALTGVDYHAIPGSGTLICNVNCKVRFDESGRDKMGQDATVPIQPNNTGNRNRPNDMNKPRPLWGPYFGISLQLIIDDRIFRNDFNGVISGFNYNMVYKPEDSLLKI

T8: Mex67LRR-NTF2L;Mtr2 (Saccharomyces cerevisiae;Saccharomyces …, UniProt Q99257;P34232 101-487;1-184, |)
T8 sequence 1: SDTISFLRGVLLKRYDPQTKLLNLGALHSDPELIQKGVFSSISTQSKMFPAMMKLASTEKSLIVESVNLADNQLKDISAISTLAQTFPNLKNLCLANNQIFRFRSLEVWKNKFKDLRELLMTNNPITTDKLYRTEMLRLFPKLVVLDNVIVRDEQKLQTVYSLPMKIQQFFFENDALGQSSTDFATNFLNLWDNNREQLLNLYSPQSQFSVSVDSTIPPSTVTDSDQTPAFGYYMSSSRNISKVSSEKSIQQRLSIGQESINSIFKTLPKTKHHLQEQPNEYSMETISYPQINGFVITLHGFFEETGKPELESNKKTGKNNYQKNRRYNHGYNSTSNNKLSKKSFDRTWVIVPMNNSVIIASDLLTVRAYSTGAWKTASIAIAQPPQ
T8 sequence 2: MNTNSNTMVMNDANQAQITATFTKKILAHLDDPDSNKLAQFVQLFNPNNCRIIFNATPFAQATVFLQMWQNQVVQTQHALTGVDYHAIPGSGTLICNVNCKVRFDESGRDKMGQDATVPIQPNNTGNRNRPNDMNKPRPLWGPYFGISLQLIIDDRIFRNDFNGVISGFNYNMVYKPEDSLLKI


Assays:
Test in all cases: fluorescence anisotropy; 20 mM Tris pH 8.0, 50 mM NaCl, 10 nM DY-547 RNA; temperature not stated
[1] = target: T1, Mex67 (full length):Mtr2;Mtr2; settings: protein: recombinant;recombinant, tags: His6 removed by TEV;, copies: 1;1
Mex67NTF2L;Mtr2 = target: T2, Mex67NTF2L;Mtr2; settings: protein: recombinant;recombinant; tags: His6 removed by TEV;; copies: 1;1
Mex67ΔUBA;Mtr2 = target: T3, Mex67ΔUBA;Mtr2; settings: protein: recombinant;recombinant; tags: His6 removed by TEV;; copies: 1;1
[2] = target: T4, Mex67ΔUBA L263D+M265D;Mtr2; settings: protein: recombinant;recombinant; tags: His6 removed by TEV;; copies: 1;1
Mex67RRM-LRR = target: T5, Mex67RRM-LRR; settings: protein: recombinant; tags: His6 removed by TEV
[3] = target: T6, Mex67ΔUBA L263A+M265A;Mtr2; settings: protein: recombinant;recombinant; tags: His6 removed by TEV;; copies: 1;1
[4] = target: T7, Mex67ΔUBA L263Y+M265Y;Mtr2; settings: protein: recombinant;recombinant; tags: His6 removed by TEV;; copies: 1;1
Mex67LRR-NTF2L;Mtr2 = target: T8, Mex67LRR-NTF2L;Mtr2; settings: protein: recombinant;recombinant; tags: His6 removed by TEV;; copies: 1;1

Binder | binding result ([1]; may form higher order structure) | Kd (Mex67NTF2L;Mtr2) | Kd [1] | Kd (Mex67ΔUBA;Mtr2) | Kd [2] | Kd (Mex67RRM-LRR) | Kd [3] | Kd [4] | Kd (Mex67LRR-NTF2L;Mtr2)
GGGGGGGGGGGGGGG (ssRNA) [G15] | binds | – | – | – | – | – | – | – | –
AAAAAAAAAAAAAAA (ssRNA) [A15] | – | 860 nM | 260 nM | 310 nM | 820 nM | 12000 nM | 640 nM | 420 nM | 340 nM
